Experimental data: article PMC509406, “Emerin Caps the Pointed End of Actin Filaments: Evidence for an Actin Cortical Network at the Nuclear Inner Membrane” (PLoS Biology, 2004)
Residue numbers refer to the chain shown, from its start. Several values for one entry are separate records, joined by “and”; a condition that tells them apart may be missing. Equal values may be shown once.

Experiments:
[1] = biological target: T1, rabbit actin (Cytoskeleton, catalog #AKL95) (rabbit, UniProt P68135 1-377); test: cell-based or functional assay
[2] = biological target: T2, purified actin (F-actin or G-actin; species not told for these experiments) ( (purified chicken and rabbit …, UniProt P68135 1-377); test: F-actin column (affinity determination); F-actin column used to determine the affinity of F-actin for emerin; n = 8; conditions: both partners purified
[3] = biological target: T2, purified actin (F-actin or G-actin; …); test: co-sedimentation; actin polymerized in KMEI buffer, incubated 30 min with recombinant emerin (4 μM in text and methods, 2 μM in the legend), pelleted at 100,000g for 1 h; SDS-PAGE, Coomassie blue; conditions: both partners purified
[4] = biological target: T1, rabbit actin (Cytoskeleton, catalog …); test: pyrene–actin polymerization rate against emerin concentration; 2 μM rabbit actin with 5% pyrene–actin; emerin 0.1 to 4.4 μM added just prior to polymerization; R/cR; equilibrium affinity from activity; conditions: both partners purified
[5] = biological target: T1, rabbit actin (Cytoskeleton, catalog …); test: pointed-end elongation of gelsolin–actin seeds (pyrene–actin) against emerin concentration; gelsolin–actin dimers (10 nM), 2 μM actin, 0 to 2 μM wild-type emerin 1–222; apparent Kd from the reduction of the rate; n = 12; conditions: both partners purified
[6] = biological target: T1, rabbit actin (Cytoskeleton, catalog …); test: depolymerization of actin filaments grown from gelsolin–actin seeds against emerin concentration; filaments from 2 μM actin and gelsolin–actin seeds diluted 10-fold to 0.2 μM actin with 0–2 μM emerin 1–222; apparent Kd; n = 6; conditions: both partners purified

B1: wild-type emerin (residues 1–222), the full nucleoplasmic domain (domain or fragment)
chain: MDNYADLSDTELTTLLRRYNIPHGPVVGSTRRLYEKKIFEYETQRRRLSPPSSSAASSYSFSDLNSTRGDADMYDLPKKEDALLYQSKGYNDDYYEESYFTTRTYGEPESAGPSRAVRQSVTSFPDADAFHHQVHDDDLLSSSEEECKDRERPMYGRDSAYQSITHYRPVSASRSSLDLSYYPTSSSTSFMSSSSSSSSWLTRRAIRPENRAPGAGLGQDRQ
notes: emerin, residues 1–222, the entire nucleoplasmic domain, lacking the transmembrane domain; also called emr; WT; source: expressed in bacteria and purified
[1]
  critical concentration for pointed-end growth (5 nM gelsolin–actin seeds, 625 nM emerin, 16 h at room temperature): 2.3 to 2.7 fold
  rate of depolymerization of filaments grown from gelsolin–actin seeds, diluted to 0.2 μM actin, emerin 0–2 μM: ≤ 8 fold
  rate of depolymerization of preformed filaments capped at the barbed end with capping protein (CapZ), diluted into 0.2 μM actin (data not shown): 10 fold
  rate of pyrene–actin polymerization (R/cR), emerin 0.1 to 4.4 μM, 2 μM actin: 4 fold
[2]
  Kd: 480 nM and 300 to 500 nM
[3]
  stoichiometry N: ~300 actin monomers per emerin molecule
[4]
  Kd: 420 nM
[5]
  Kd: 430 nM and 300 to 500 nM
[6]
  Kd: 380 nM and 350 to 450 nM

B2: emerin (residues 1–222) alanine substitution mutant m196 (domain or fragment)
chain: B1 chain with S196A, S197A
[1]
  rate of pyrene–actin polymerization, 1 μM mutant, 2.0 μM G-actin, against wild-type emerin: ~50 % of wild-type emerin
